The results in this text go back to the supplement of paper PMC9112550, “Optimization of the antimicrobial peptide Bac7 by deep mutational scanning” (BMC Biology, 2022).
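Also: peptides expressed intracellularly from a pBAD plasmid library in pooled LB shake-flask culture, induced with 0.3% L-arabinose, DNA abundance read by NGS, three biological replicates, DESeq2 with apeglm shrinkage.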

The subject of the data set is Escherichia coli TOP10. Kind of data set: shrunken log2 fold change of peptide-encoding DNA abundance (4.5 h post-induction vs induction); higher = less antimicrobial activity (less host growth inhibition). Conditions: time post-induction: 4.5 h; library: site-saturation at positions 5, 18, 19, 20.
In the case of RRIRSRPPRLPRPRPRPFNGPRP, the “shrunken log2 fold change” value is -0.0626. Turning to RRIRCRPPRLPRPRPRPPMTPRP, the “shrunken log2 fold change” value is 0.155. For RRIRGRPPRLPRPRPRPRHAPRP, the “shrunken log2 fold change” value was 1.05. For RRIRMRPPRLPRPRPRPQAMPRP, the “shrunken log2 fold change” value was determined as 0.318.

As for RRIRWRPPRLPRPRPRPAWFPRP, the “shrunken log2 fold change” value came out at 0.251.

Regarding RRIRGRPPRLPRPRPRPCNGPRP, the “shrunken log2 fold change” value is -0.199. For RRIRTRPPRLPRPRPRPRHDPRP the value was 0.0144. In the case of RRIRLRPPRLPRPRPRPHPTPRP, the “shrunken log2 fold change” value was -0.094. For RRIRSRPPRLPRPRPRPTNYPRP, the “shrunken log2 fold change” value is -0.44. As for RRIRDRPPRLPRPRPRPGYLPRP, the “shrunken log2 fold change” value is -0.394.

On to RRIRCRPPRLPRPRPRPRCCPRP, for which the “shrunken log2 fold change” value is -0.245.

Consider RRIRLRPPRLPRPRPRPDTAPRP, for which the “shrunken log2 fold change” value worked out at 0.0121. For RRIRARPPRLPRPRPRPTKCPRP the value was 0.141. Regarding RRIRGRPPRLPRPRPRPRLVPRP, the “shrunken log2 fold change” value was found to be 0.725. Take RRIRPRPPRLPRPRPRPFIIPRP: the “shrunken log2 fold change” value is -0.854. Take RRIRDRPPRLPRPRPRPMRIPRP: the “shrunken log2 fold change” value was -0.0494. Take RRIRMRPPRLPRPRPRPASRPRP: the “shrunken log2 fold change” value came out at 0.201. Turning to RRIRWRPPRLPRPRPRPRAYPRP, the “shrunken log2 fold change” value turned out to be 0.224.

Turning to RRIRGRPPRLPRPRPRPQCTPRP, the “shrunken log2 fold change” value stood at 0.085. In the case of RRIRGRPPRLPRPRPRPFIYPRP, the “shrunken log2 fold change” value is 0.0217. Take RRIRPRPPRLPRPRPRPSFMPRP: the “shrunken log2 fold change” value was -0.377.

For RRIRRRPPRLPRPRPRPKPWPRP, the “shrunken log2 fold change” value turned out to be 0.274. Regarding RRIRQRPPRLPRPRPRPLKDPRP, the “shrunken log2 fold change” value is -0.164. As to RRIRTRPPRLPRPRPRPGAWPRP, the “shrunken log2 fold change” value worked out at 0.12. On to RRIRARPPRLPRPRPRPQLLPRP, for which the “shrunken log2 fold change” value is 0.527.

As to RRIRGRPPRLPRPRPRPIGNPRP, the “shrunken log2 fold change” value is -0.149. For RRIRMRPPRLPRPRPRPSSAPRP, the “shrunken log2 fold change” value came to 0.514. With RRIRPRPPRLPRPRPRPDNEPRP, the “shrunken log2 fold change” value was -0.0784. In the case of RRIRSRPPRLPRPRPRPSMIPRP, the “shrunken log2 fold change” value is -0.625. As for RRIRGRPPRLPRPRPRPNHFPRP, the “shrunken log2 fold change” value is -0.0611. For the sequence RRIRIRPPRLPRPRPRPEFEPRP, the “shrunken log2 fold change” value is -0.0399. Turning to RRIRRRPPRLPRPRPRPDTLPRP, the “shrunken log2 fold change” value turned out to be 0.06.

Take RRIRMRPPRLPRPRPRPTAEPRP: the “shrunken log2 fold change” value was 2.75.

In the case of RRIRWRPPRLPRPRPRPDILPRP, the “shrunken log2 fold change” value was 0.0776.

As to RRIRIRPPRLPRPRPRPETTPRP, the “shrunken log2 fold change” value was -0.0691. On to RRIRPRPPRLPRPRPRPEIDPRP, for which the “shrunken log2 fold change” value was -0.0829.

With RRIRCRPPRLPRPRPRPPPEPRP, the “shrunken log2 fold change” value amounted to 1.32.

As for RRIRKRPPRLPRPRPRPIVYPRP, the “shrunken log2 fold change” value is -0.0564. Consider RRIRHRPPRLPRPRPRPDNKPRP, for which the “shrunken log2 fold change” value is -0.27.

RRIRGRPPRLPRPRPRPMYGPRP: the “shrunken log2 fold change” value is -0.107. Take RRIRHRPPRLPRPRPRPSVCPRP: the “shrunken log2 fold change” value is -0.294. In the case of RRIRVRPPRLPRPRPRPFMEPRP, the “shrunken log2 fold change” value is -0.265.

RRIRFRPPRLPRPRPRPSWMPRP: the “shrunken log2 fold change” value was -0.0113. As to RRIRYRPPRLPRPRPRPGKPPRP, the “shrunken log2 fold change” value was -0.0225.

Take RRIRQRPPRLPRPRPRPALCPRP: the “shrunken log2 fold change” value worked out at 0.171. As for RRIRLRPPRLPRPRPRPLGLPRP, the “shrunken log2 fold change” value was -0.253.

RRIRFRPPRLPRPRPRPKACPRP: the “shrunken log2 fold change” value is -0.174. Then RRIRQRPPRLPRPRPRPGSSPRP, with -0.172; and RRIRMRPPRLPRPRPRPDWEPRP, with 0.382. For RRIRLRPPRLPRPRPRPIIGPRP, the “shrunken log2 fold change” value is -0.0425. RRIRDRPPRLPRPRPRPGHCPRP: the “shrunken log2 fold change” value was -0.0141. Turning to RRIRKRPPRLPRPRPRPEVIPRP, the “shrunken log2 fold change” value was -0.00256. Take RRIRTRPPRLPRPRPRPHCFPRP: the “shrunken log2 fold change” value is -0.102. Then RRIRFRPPRLPRPRPRPVRWPRP, with 0.632; and RRIRTRPPRLPRPRPRPCFKPRP, with -0.362; and RRIRSRPPRLPRPRPRPDLLPRP, with -0.0424. As for RRIRWRPPRLPRPRPRPDKPPRP, the “shrunken log2 fold change” value was found to be 0.0507. On to RRIRGRPPRLPRPRPRPFRTPRP, for which the “shrunken log2 fold change” value is -0.0333. Regarding RRIRPRPPRLPRPRPRPLSMPRP, the “shrunken log2 fold change” value is -0.33. In the case of RRIRHRPPRLPRPRPRPVNYPRP, the “shrunken log2 fold change” value was -0.881. Regarding RRIRHRPPRLPRPRPRPFREPRP, the “shrunken log2 fold change” value is -0.0591. Take RRIRERPPRLPRPRPRPWYNPRP: the “shrunken log2 fold change” value is -0.174. RRIRLRPPRLPRPRPRPRWVPRP: the “shrunken log2 fold change” value stood at 0.237. RRIRQRPPRLPRPRPRPMMKPRP: the “shrunken log2 fold change” value is -0.0269.

Turning to RRIRKRPPRLPRPRPRPYPRPRP, the “shrunken log2 fold change” value was -0.00783. With RRIRARPPRLPRPRPRPMYRPRP, the “shrunken log2 fold change” value was -0.0452.

As to RRIRRRPPRLPRPRPRPSPTPRP, the “shrunken log2 fold change” value came to 0.598. RRIRLRPPRLPRPRPRPACDPRP: the “shrunken log2 fold change” value amounted to 0.15. As to RRIRMRPPRLPRPRPRPVQSPRP, the “shrunken log2 fold change” value was found to be 0.206. Then RRIRHRPPRLPRPRPRPFYIPRP, with -1.15; and RRIRKRPPRLPRPRPRPINMPRP, with -0.196; and RRIRSRPPRLPRPRPRPWFTPRP, with -0.253. For RRIRHRPPRLPRPRPRPADQPRP the value was 0.0188. As for RRIRCRPPRLPRPRPRPDGDPRP, the “shrunken log2 fold change” value was 0.0934. Then RRIRMRPPRLPRPRPRPTAKPRP, with 0.255; and RRIRLRPPRLPRPRPRPVNRPRP, with 0.199. As to RRIRERPPRLPRPRPRPVDFPRP, the “shrunken log2 fold change” value was -0.0586. For RRIRQRPPRLPRPRPRPFGQPRP the value was -0.0598.

In the case of RRIRLRPPRLPRPRPRPFLVPRP, the “shrunken log2 fold change” value is -0.338. With RRIRFRPPRLPRPRPRPHSQPRP, the “shrunken log2 fold change” value was -0.351.

As to RRIRQRPPRLPRPRPRPVYLPRP, the “shrunken log2 fold change” value was -0.206. For RRIRCRPPRLPRPRPRPRTRPRP the value was 0.47; for RRIRERPPRLPRPRPRPGDTPRP, -0.943. As to RRIRQRPPRLPRPRPRPCLGPRP, the “shrunken log2 fold change” value came to 0.172.

In the case of RRIRRRPPRLPRPRPRPHCAPRP, the “shrunken log2 fold change” value amounted to 0.419. Then RRIRHRPPRLPRPRPRPYKAPRP, with -0.484; and RRIRVRPPRLPRPRPRPSYNPRP, with -0.485; and RRIRQRPPRLPRPRPRPMQEPRP, with 0.0325. Consider RRIRIRPPRLPRPRPRPGTLPRP, for which the “shrunken log2 fold change” value was found to be 0.0164. On to RRIRIRPPRLPRPRPRPNACPRP, for which the “shrunken log2 fold change” value turned out to be 0.00304. Take RRIRDRPPRLPRPRPRPDTPPRP: the “shrunken log2 fold change” value was 0.0945.
